Test [1] concerns E. coli LigA. Format: biochemical. Particulars: for rate of ligase adenylation (kinetic pattern): 1 μM [32P-AMP]NAD+, 15-120 s; for ligase adenylation (ligase-AMP formation) with NAD+: qualitative. As to the method: (§1) FIG. 12A: Aliquots (5 μg) of wild-type (WT) E. coli ligase, N-terminal deletion mutants NΔ38 and NΔ78, and the full-length ligase proteins containing the indicated alanine mutations in domain Ia were analyzed by SDS-PAGE. A Coomassie blue-stained gel is shown. FIG. 12B: Ligase adenylation reaction mixtures (20 μl) containing 50 mM Tris-HCl (pH 7.5), 5 mM DTT, 5 mM MgCl2, 1 μM [α-^32P]NAD^+ and 8 pmol of WT ligase, NΔ38, NΔ78, or the indicated alanine mutants were incubated for 5 min at 37° C. The reaction products were resolved by SDS-PAGE and visualized by autoradiography. FIG. 12C: Nick joining reaction mixtures (20 μl) containing 50 mM Tris-HCl (pH 7.5), 10 mM (NH4)2SO4, 5 mM DTT, 5 mM MgCl2, 20 μM NAD^+, 1 pmol of ^32P-labeled nicked DNA, and increasing amounts of WT ligase or the indicated alanine mutants were incubated for 10 min at 22° C. The extents of ligation are plotted as a function of input protein.
FIG. 15A: Aliquots (5 μg) of wild-type (WT) E. coli ligase and proteins containing the indicated mutations in domain Ia were analyzed by SDS-PAGE. The Coomassie blue-stained gel is shown. The positions and sizes (in kDa) of marker proteins are indicated on the left. FIG. 15B: Ligase adenylation reaction mixtures (20 μl) containing 50 mM Tris-HCl (pH 7.5), 5 mM DTT, 5 mM MgCl2, 1 μM [α-^32P]NAD^+ and 8 pmol of WT ligase or the indicated mutants were incubated for 5 min at 37° C. The reaction products were resolved by SDS-PAGE and visualized by autoradiography.
Reaction mixtures containing (per 20 μl) 50 mM Tris-HCl (pH 7.5), 5 mM DTT, 5 mM MgCl2, 1 μM [^32P-AMP]NAD^+ and 8 pmol of ligase were incubated at 22° C. Aliquots (20 μl) were withdrawn at 15, 30, 60 and 120 s and then quenched immediately with SDS. The products were analyzed by SDS-PAGE. Formation of the ligase-[^32P]AMP adduct is plotted as a function of time.
The first step in DNA ligation involves formation of a covalent enzyme-adenylate intermediate.

Test [2] has as its system E. coli LigA. Format: biochemical. Particulars: specific activity by protein titration under steady-state conditions, normalized to wild-type ligase. As to the method: as §1
To further probe the role of domain Ia in NAD^+ recognition and nucleotidyl transfer, single alanine substitutions were introduced at six positions in the Ia domain of E. coli LigA. The six mutated Eco ligase residues—Glu10, Tyr22, His23, Asp32, Tyr35, and Asp36—correspond to the six residues that were subjected to alanine scanning mutagenesis in AmEPV ligase (FIG. 11). […] The conserved positions are denoted by shaded boxes in FIG. 11. The Eco ligase mutants E10A, Y22A, H23A, D32A, Y35A, and D36A were produced in E. coli and purified by Ni-agarose chromatography in parallel with wild-type ligase (FIG. 12A).
To evaluate the roles of charge, hydrogen bonding potential, and steric constraints in the functions of the domain Ia residues implicated in the step 1 reaction with NAD^+, the effects of conservative substitutions were tested. Tyr22 and Tyr35 were replaced by Phe and Ser, His23 was changed to Tyr, and Asp32 and Asp36 were mutated to Glu and Asn. The recombinant mutant ligases were purified from soluble bacterial extracts by Ni-agarose chromatography (FIG. 15A). The specific activity of each mutant was determined under steady-state conditions by protein titration and normalized to the specific activity of wild-type ligase.

This is an account of results in patent US6787341B2, “Pharmacological targeting of bacterial DNA ligase for treatment and prevention of bacterial infections” (priority 2001, dated 2004).

B1: Y22F: E. coli LigA with Tyr22 replaced by Phe (protein, UniProt P15042 1-671, looked up, variant Y22F)
DNA ligase: MESIEQQLTELRTTLRHHEYLFHVMDAPEIPDAEYDRLMRELRELETKHPELITPDSPTQRVGAAPLAAFSQIRHEVPMLSLDNVFDEESFLAFNKRVQDRLKNNEKVTWCCELKLDGLAVSILYENGVLVSAATRGDGTTGEDITSNVRTIRAIPLKLHGENIPARLEVRGEVFLPQAGFEKINEDARRTGGKVFANPRNAAAGSLRQLDPRITAKRPLTFFCYGVGVLEGGELPDTHLGRLLQFKKWGLPVSDRVTLCESAEEVLAFYHKVEEDRPTLGFDIDGVVIKVNSLAQQEQLGFVARAPRWAVAFKFPAQEQMTFVRDVEFQVGRTGAITPVARLEPVHVAGVLVSNATLHNADEIERLGLRIGDKVVIRRAGDVIPQVVNVVLSERPEDTREVVFPTHCPVCGSDVERVEGEAVARCTGGLICGAQRKESLKHFVSRRAMDVDGMGDKIIDQLVEKEYVHTPADLFKLTAGKLTGLERMGPKSAQNVVNALEKAKETTFARFLYALGIREVGEATAAGLAAYFGTLEALEAASIEELQKVPDVGIVVASHVHNFFAEESNRNVISELLAEGVHWPAPIVINAEEIDSPFAGKTVVLTGSLSQMSRDDAKARLVELGAKVAGSVSKKTDLVIAGEAAGSKLAKAQELGIEVIDEAEMLRLLGS
Take B1: in the test on E. coli LigA [1], the “rate of ligase adenylation (kinetic pattern)” value is listed as “reacted slowly” and the “ligase adenylation (ligase-AMP formation) with NAD+” value (from here on “ligase adenylation … with NAD+”) was “weakly active”. For the same molecule, the “Nick Joining Activity (% of WT)” value in the test on E. coli LigA [2] is recorded as 9 % of WT.

B2: H23Y: E. coli LigA with His23 changed to Tyr (protein, UniProt P15042 1-671, looked up, variant H23Y)
DNA ligase: MESIEQQLTELRTTLRHHEYLYYVMDAPEIPDAEYDRLMRELRELETKHPELITPDSPTQRVGAAPLAAFSQIRHEVPMLSLDNVFDEESFLAFNKRVQDRLKNNEKVTWCCELKLDGLAVSILYENGVLVSAATRGDGTTGEDITSNVRTIRAIPLKLHGENIPARLEVRGEVFLPQAGFEKINEDARRTGGKVFANPRNAAAGSLRQLDPRITAKRPLTFFCYGVGVLEGGELPDTHLGRLLQFKKWGLPVSDRVTLCESAEEVLAFYHKVEEDRPTLGFDIDGVVIKVNSLAQQEQLGFVARAPRWAVAFKFPAQEQMTFVRDVEFQVGRTGAITPVARLEPVHVAGVLVSNATLHNADEIERLGLRIGDKVVIRRAGDVIPQVVNVVLSERPEDTREVVFPTHCPVCGSDVERVEGEAVARCTGGLICGAQRKESLKHFVSRRAMDVDGMGDKIIDQLVEKEYVHTPADLFKLTAGKLTGLERMGPKSAQNVVNALEKAKETTFARFLYALGIREVGEATAAGLAAYFGTLEALEAASIEELQKVPDVGIVVASHVHNFFAEESNRNVISELLAEGVHWPAPIVINAEEIDSPFAGKTVVLTGSLSQMSRDDAKARLVELGAKVAGSVSKKTDLVIAGEAAGSKLAKAQELGIEVIDEAEMLRLLGS
In the case of B2, in the test on E. coli LigA [1], the “ligase adenylation … with NAD+” value is “restored the yield of ligase-AMP adduct to the wild-type level”. Further, the “Nick Joining Activity (% of WT)” value in the test on E. coli LigA [2] is listed as 88 % of WT.

B3: Y22S: E. coli LigA with Tyr22 replaced by Ser (protein, UniProt P15042 1-671, looked up, variant Y22S)
DNA ligase: MESIEQQLTELRTTLRHHEYLSHVMDAPEIPDAEYDRLMRELRELETKHPELITPDSPTQRVGAAPLAAFSQIRHEVPMLSLDNVFDEESFLAFNKRVQDRLKNNEKVTWCCELKLDGLAVSILYENGVLVSAATRGDGTTGEDITSNVRTIRAIPLKLHGENIPARLEVRGEVFLPQAGFEKINEDARRTGGKVFANPRNAAAGSLRQLDPRITAKRPLTFFCYGVGVLEGGELPDTHLGRLLQFKKWGLPVSDRVTLCESAEEVLAFYHKVEEDRPTLGFDIDGVVIKVNSLAQQEQLGFVARAPRWAVAFKFPAQEQMTFVRDVEFQVGRTGAITPVARLEPVHVAGVLVSNATLHNADEIERLGLRIGDKVVIRRAGDVIPQVVNVVLSERPEDTREVVFPTHCPVCGSDVERVEGEAVARCTGGLICGAQRKESLKHFVSRRAMDVDGMGDKIIDQLVEKEYVHTPADLFKLTAGKLTGLERMGPKSAQNVVNALEKAKETTFARFLYALGIREVGEATAAGLAAYFGTLEALEAASIEELQKVPDVGIVVASHVHNFFAEESNRNVISELLAEGVHWPAPIVINAEEIDSPFAGKTVVLTGSLSQMSRDDAKARLVELGAKVAGSVSKKTDLVIAGEAAGSKLAKAQELGIEVIDEAEMLRLLGS
Consider B3, for which the “ligase adenylation … with NAD+” value in the test on E. coli LigA [1] is on record as “virtually inert”. The “Nick Joining Activity (% of WT)” value in the test with E. coli LigA [2] was 0.2 % of WT.

B4: Y35F: E. coli LigA with Tyr35 replaced by Phe (protein, UniProt P15042 1-671, looked up, variant Y35F)
DNA ligase: MESIEQQLTELRTTLRHHEYLYHVMDAPEIPDAEFDRLMRELRELETKHPELITPDSPTQRVGAAPLAAFSQIRHEVPMLSLDNVFDEESFLAFNKRVQDRLKNNEKVTWCCELKLDGLAVSILYENGVLVSAATRGDGTTGEDITSNVRTIRAIPLKLHGENIPARLEVRGEVFLPQAGFEKINEDARRTGGKVFANPRNAAAGSLRQLDPRITAKRPLTFFCYGVGVLEGGELPDTHLGRLLQFKKWGLPVSDRVTLCESAEEVLAFYHKVEEDRPTLGFDIDGVVIKVNSLAQQEQLGFVARAPRWAVAFKFPAQEQMTFVRDVEFQVGRTGAITPVARLEPVHVAGVLVSNATLHNADEIERLGLRIGDKVVIRRAGDVIPQVVNVVLSERPEDTREVVFPTHCPVCGSDVERVEGEAVARCTGGLICGAQRKESLKHFVSRRAMDVDGMGDKIIDQLVEKEYVHTPADLFKLTAGKLTGLERMGPKSAQNVVNALEKAKETTFARFLYALGIREVGEATAAGLAAYFGTLEALEAASIEELQKVPDVGIVVASHVHNFFAEESNRNVISELLAEGVHWPAPIVINAEEIDSPFAGKTVVLTGSLSQMSRDDAKARLVELGAKVAGSVSKKTDLVIAGEAAGSKLAKAQELGIEVIDEAEMLRLLGS
As for B4, in the test on E. coli LigA [1], the “rate of ligase adenylation (kinetic pattern)” value is listed as “faster than Y35A” and the “ligase adenylation … with NAD+” value was “restored adenylation activity”. The “Nick Joining Activity (% of WT)” value with E. coli LigA [2] is given as 23 % of WT.

B5: Y35S: E. coli LigA with Tyr35 replaced by Ser (protein, UniProt P15042 1-671, looked up, variant Y35S)
DNA ligase: MESIEQQLTELRTTLRHHEYLYHVMDAPEIPDAESDRLMRELRELETKHPELITPDSPTQRVGAAPLAAFSQIRHEVPMLSLDNVFDEESFLAFNKRVQDRLKNNEKVTWCCELKLDGLAVSILYENGVLVSAATRGDGTTGEDITSNVRTIRAIPLKLHGENIPARLEVRGEVFLPQAGFEKINEDARRTGGKVFANPRNAAAGSLRQLDPRITAKRPLTFFCYGVGVLEGGELPDTHLGRLLQFKKWGLPVSDRVTLCESAEEVLAFYHKVEEDRPTLGFDIDGVVIKVNSLAQQEQLGFVARAPRWAVAFKFPAQEQMTFVRDVEFQVGRTGAITPVARLEPVHVAGVLVSNATLHNADEIERLGLRIGDKVVIRRAGDVIPQVVNVVLSERPEDTREVVFPTHCPVCGSDVERVEGEAVARCTGGLICGAQRKESLKHFVSRRAMDVDGMGDKIIDQLVEKEYVHTPADLFKLTAGKLTGLERMGPKSAQNVVNALEKAKETTFARFLYALGIREVGEATAAGLAAYFGTLEALEAASIEELQKVPDVGIVVASHVHNFFAEESNRNVISELLAEGVHWPAPIVINAEEIDSPFAGKTVVLTGSLSQMSRDDAKARLVELGAKVAGSVSKKTDLVIAGEAAGSKLAKAQELGIEVIDEAEMLRLLGS
For the molecule B5, the “ligase adenylation … with NAD+” value in the test with E. coli LigA [1] is given as “apparently unreactive”. In addition, the “Nick Joining Activity (% of WT)” value with E. coli LigA [2] is listed as <0.1 % of WT.
